Laboratory results: patent US11040083B2, “Polypeptides comprising vinculin binding sites for the treatment of proliferation and/or adhesion related diseases” (PARIS SCIENCES ET LETTRES—QUARTIER LATIN, priority 2015, dated 2021)
“And” between values parts separate entries of the source, which are not always exact repeats. Equal entries are not always repeated. Where two headings read alike, the source gives them in different places.

Legend:
[1] = target: T1, full-length vinculin (HV) (Homo sapiens, UniProt P18206); assay: ELISA solid phase binding assay; conditions: IpaA construct immobilized on the solid phase, HV as soluble ligand
T1 construct: with full-length vinculin (HV) in solid phase assays
T1 sequence (P18206 1-1066 isoform P18206-2): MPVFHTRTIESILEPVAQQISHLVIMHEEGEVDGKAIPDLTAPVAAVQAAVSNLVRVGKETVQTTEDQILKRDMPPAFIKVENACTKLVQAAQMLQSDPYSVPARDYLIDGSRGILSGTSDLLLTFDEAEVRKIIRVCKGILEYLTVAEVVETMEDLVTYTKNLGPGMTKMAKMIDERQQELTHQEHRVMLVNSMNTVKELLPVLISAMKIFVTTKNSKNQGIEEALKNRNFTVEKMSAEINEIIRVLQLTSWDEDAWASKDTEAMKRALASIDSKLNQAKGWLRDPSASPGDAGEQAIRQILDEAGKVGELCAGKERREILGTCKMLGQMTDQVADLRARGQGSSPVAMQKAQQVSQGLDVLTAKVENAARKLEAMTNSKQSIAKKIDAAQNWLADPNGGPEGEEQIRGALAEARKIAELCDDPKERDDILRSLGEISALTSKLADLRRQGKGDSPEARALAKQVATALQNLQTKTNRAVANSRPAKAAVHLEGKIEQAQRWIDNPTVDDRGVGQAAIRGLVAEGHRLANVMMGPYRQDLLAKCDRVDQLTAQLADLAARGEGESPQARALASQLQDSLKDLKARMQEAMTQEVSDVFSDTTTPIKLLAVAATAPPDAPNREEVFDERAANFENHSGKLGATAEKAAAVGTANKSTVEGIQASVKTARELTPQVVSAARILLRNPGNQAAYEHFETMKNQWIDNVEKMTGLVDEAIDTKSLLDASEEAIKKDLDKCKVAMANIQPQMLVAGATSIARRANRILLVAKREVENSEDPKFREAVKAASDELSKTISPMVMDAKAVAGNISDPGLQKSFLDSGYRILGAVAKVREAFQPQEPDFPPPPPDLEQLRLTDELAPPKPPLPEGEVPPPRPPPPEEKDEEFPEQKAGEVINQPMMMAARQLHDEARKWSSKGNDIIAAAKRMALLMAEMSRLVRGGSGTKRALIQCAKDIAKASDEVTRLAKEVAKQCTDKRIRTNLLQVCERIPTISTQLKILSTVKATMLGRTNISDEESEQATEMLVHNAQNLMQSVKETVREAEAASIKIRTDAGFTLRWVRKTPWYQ
Protocol: 96-well Maxisorp (Nunc) ELISA plates were coated with 30 nM full-length vinculin, vinculin constructs or IpaA proteins in binding buffer (25 mM Tris pH 7.4, 100 mM NaCl and 1 mM β-Mercaptoethanol). The wells were blocked with PBS-BSA 2%, washed and incubated with half series dilutions of IpaA or vinculin proteins in binding buffer+0.2% BSA at room temperature for one hour. After incubation the plates were washed and incubated with an anti-IpaA (dilution: 1/2000) polyclonal primary antibody (Tran Van Nhieu et al., 1997. EMBO J. 16(10):2717-29) or anti-vinculin (dilution: 1/2000) m11.5 monoclonal primary antibody (ref. V4505, Sigma-Aldrich) in binding buffer+0.2% BSA for one hour at room temperature. Plates were washed and incubated with an HRP-coupled secondary anti-rabbit or anti mouse Ig antibodies (dilution: 1/32000, Jackson ImmunoResearch) for one hour.

[2] = target: T2, talin H1-H4 (Homo sapiens, UniProt Q9Y490); assay: Isothermal titration calorimetry; type: binding; conditions: 25° C.; for ΔG free enthalpy / ΔH enthalpy / −TΔS entropic contribution / Kd: ITC; for Kd: read-out: KD (affinity constant)
Protocol: Vinculin, IpaA proteins and peptides were extensively dialyzed in binding buffer (25 mM Tris pH 7.4, 100 mM NaCl and 1 mM β-Mercaptoethanol). The final concentration of all proteins/peptides was measured using a BCA test (Thermo Scientific). Talin-IpaA binding was measured by microcalorimetry using an ITC200 calorimeter (MicroCal) at 25° C. 200 μL of 20-100 μM of talin H1-H4 protein was added to the cell and binding in the presence of different concentrations of IpaA VBS1, VBS2 or VBS3 peptides was measured. In other experiments, 200 μL of a 16 μM equimolar mix of A483:HVD1 was incubated for one hour at room temperature prior to addition to the cell. Binding to talin H1-H4 (100 μM) was measured. Typically, 20-40 injections of 2 μL of ligand were made with intervals of 320 seconds between each addition, with a reference power of 12 μcal/sec. Data were analyzed using the MicroCal software provided by manufacturer.

[3] = Size exclusion chromatography, hydrodynamic radius; type: physicochemical; conditions: for Radiusm (estimated hydrodynamic radius): SEC Superdex 75, 20 μM equimolar
Protocol: The purified proteins HVD1, A483, A524 and Talin H1-H4 were used at an equimolar concentration of 20 μM and incubated at 4° C. for one hour in binding buffer. The protein mixtures (200 μL) were injected in a FPLC chromatography system (FPLC Pharmacia) at 16° C. in a Superdex 75 HR 10/30 column (GE Healthcare) previously equilibrated with 10 volumes of binding buffer. The SEC system was calibrated with a Low Molecular Weight Gel Filtration Kit (ref. 17-0442-01, GE Healthcare) and the hydrodynamic radius (Angstroms) of the reference proteins (BSA, OVA, ChyA and RibA) correlated with the elution volume (Ve) using an Euler exponential equation: Hydrodynamic radius (Ang)=210.46 e^−0.189 Ve (mL), with a correlation squared coefficient of R^2=0.9973. Fractions corresponding to elution volume 8-10 mLs were recovered, and analyzed by SDS-PAGE using 15% polyacrylamide gels.

[4] = target: T2, talin H1-H4; assay: SEC-MALS; type: binding; conditions: 20 μM equimolar
Protocol: The purified proteins IpaA 483-633 (A483), IpaA 524-633 (A524) and Talin H1-H4 (TlnH1-H4) were used at 20 μM equimolar concentrations and incubated at 4° C. for one hour in binding buffer (25 mM Tris-HCL pH 7.0, 100 mM NaCl and 1 mM β-Mercaptoethanol). The protein mixtures (200 μL) were analyzed by size-exclusion chromatography (SEC) on a Superdex 200 10/300 GL (GE Healthcare) using a Shimadzu Prominence HPLC. Multi-angle laser light scattering (MALS) was measured with a MiniDAWN TREOS (Wyatt Technology). Refractometry was monitored using an Optilab T-rEX (Wyatt Technology).

[5] = test system: melanocytes; assay: Matrigel invasion assay; type: cell-based; conditions: 24-hour incubation, three independent experiments
Protocol: Cells were transfected by GFP-A524, GFP-A483 or Mock-transfected (without DNA, as a control).
Cells were further trypsinized, collected, and deposited in a matrigel insert. Following a 24-hour incubation, the matrigel was remove, the membrane was fixed and processed for fluorescence straining of cell nuclei with DAPI. Cells that transmigrated across the matrigel were scored (FIG. 24B).

T2 sequence (Q9Y490 482-636): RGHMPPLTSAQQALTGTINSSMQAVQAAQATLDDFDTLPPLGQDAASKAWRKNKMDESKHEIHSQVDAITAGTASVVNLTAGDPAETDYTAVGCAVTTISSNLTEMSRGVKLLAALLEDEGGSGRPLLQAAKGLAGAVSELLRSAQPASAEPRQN

B1: A483: amino acids 483 to 633 of SEQ ID NO: 1 (IpaA), containing IpaA VBS1, VBS2 and VBS3 (protein, listed as Shigella flexneri)
chain: GDTYLTRETIFEASKKVTNSLSNLISLIGTKSGTQERELQEKSKDITKSTTEHRINNKLKVTDANIRNYVTETNADTIDKNHAIYEKAKEVSSALSKVLSKIDDTSAELLTDDISDLKNNNDITAENNNIYKAAKDVTTSLSKVLKNINKD
modifications: A483 / IpaA (483-633)
ligand concentration at which the saturation curve plateaus [1]: 25 nM
ΔG free enthalpy [2]: -10.025 kcal/mol
ΔH enthalpy [2]: -6.229 kcal/mol
−TΔS entropic contribution [2]: -3.796 kcal/mol
Kd ([2]; listed as A483 (VBS3)): 24.9 nM
Kd [2]: 24.9 nM
Radiusg (hydrodynamic radius of a globular protein with the same MW) [3]: 17.99 Ang
Radiusm/Radiusg (RH/RG ratio) [3]: 1.83 and 1.80
Radiusm (estimated hydrodynamic radius) [3]: 32.86 Ang
complex formation with talin H1-H4 in solution [4]: compact globular complex corresponding to one talin H1-H4 dimer bound to one A483 molecule
number of cells which migrated across a matrigel [5]: 120 cells

B2: A524: IpaA 524-633, containing only IpaA VBS1 and VBS2 (protein, listed as Shigella flexneri)
chain: KSKDITKSTTEHRINNKLKVTDANIRNYVTETNADTIDKNHAIYEKAKEVSSALSKVLSKIDDTSAELLTDDISDLKNNNDITAENNNIYKAAKDVTTSLSKVLKNINKD
modifications: A524 / IpaA (524-633)
notes: IpaA 524-633, containing only IpaA VBS1 and VBS2
ligand concentration at which the saturation curve plateaus [1]: 25 nM
N (stoichiometry) ([2]; ITC non-linear fit): 1.5
ΔG free enthalpy [2]: -7.448 kcal/mol
ΔH enthalpy [2]: -3.979 kcal/mol
−TΔS entropic contribution [2]: -3.469 kcal/mol
Kd [2]: 2030 nM
Radiusg (hydrodynamic radius of a globular protein with the same MW) [3]: 15.36 Ang
Radiusm/Radiusg (RH/RG ratio) [3]: 1.88
Radiusm (estimated hydrodynamic radius) [3]: 28.93 Ang
complex formation with talin H1-H4 in solution [4]: absence of complex formation
number of cells which migrated across a matrigel [5]: 96 cells
